Measurements taken from patent US20240010754A1 (JIANGSU HENGRUI MEDICINE, published 2024).
Substitutions are numbered along the chain they refer to. Names may count otherwise.

T1: human FAP (human, UniProt Q12884 1-760)
T1 construct: whole, on cells; also called CHO/FAP; Flp-In CHO/FAP
T1 sequence (looked up): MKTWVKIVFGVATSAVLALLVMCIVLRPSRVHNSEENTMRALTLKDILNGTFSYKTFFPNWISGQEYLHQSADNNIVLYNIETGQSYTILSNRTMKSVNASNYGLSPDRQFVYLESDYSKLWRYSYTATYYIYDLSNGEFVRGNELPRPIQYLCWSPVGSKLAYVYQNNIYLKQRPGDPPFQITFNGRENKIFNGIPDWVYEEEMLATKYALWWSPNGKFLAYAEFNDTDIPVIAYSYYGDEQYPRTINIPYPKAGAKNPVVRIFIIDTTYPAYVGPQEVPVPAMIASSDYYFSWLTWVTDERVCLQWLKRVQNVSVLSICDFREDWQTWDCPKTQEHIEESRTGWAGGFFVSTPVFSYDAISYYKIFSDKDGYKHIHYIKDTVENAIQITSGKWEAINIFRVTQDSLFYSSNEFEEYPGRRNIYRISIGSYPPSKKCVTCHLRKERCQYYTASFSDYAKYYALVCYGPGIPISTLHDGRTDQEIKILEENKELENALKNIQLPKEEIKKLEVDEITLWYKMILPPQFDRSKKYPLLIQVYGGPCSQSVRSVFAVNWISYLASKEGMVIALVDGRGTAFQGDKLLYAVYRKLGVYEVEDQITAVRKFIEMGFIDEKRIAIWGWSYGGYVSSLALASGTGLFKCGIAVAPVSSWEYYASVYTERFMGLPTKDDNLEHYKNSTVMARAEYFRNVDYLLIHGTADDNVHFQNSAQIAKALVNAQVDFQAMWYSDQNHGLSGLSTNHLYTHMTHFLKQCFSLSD

B1: parent FAP monoclonal antibody Ab10 (antibody, V domains shown)
VH: QVQLQQSGVEVKKPGASVTVSCRASGYSFADHFIHWVRQAPGQGFQWMGWINPNRGVTHHAQDFQGRVAMTRDMSTDTVYMELTSLRSDDTAVYYCARDASLTARPYYFYGFDVWGQGTLVTVSS
VL: DIQMTQSPSSVSASVGDRVTITCRASQGISSWLAWYQQKPGKAPKLLIYAASSLQSGVPSRFSGSGSGTDFTLTISSLQPEDFATYYCQQANSFPPAFGQGTKVEIK
notes: also called AblO
B2: ERP2006-BS0012 (bispecific antibody, human IgG1, kappa, lambda)
heavy: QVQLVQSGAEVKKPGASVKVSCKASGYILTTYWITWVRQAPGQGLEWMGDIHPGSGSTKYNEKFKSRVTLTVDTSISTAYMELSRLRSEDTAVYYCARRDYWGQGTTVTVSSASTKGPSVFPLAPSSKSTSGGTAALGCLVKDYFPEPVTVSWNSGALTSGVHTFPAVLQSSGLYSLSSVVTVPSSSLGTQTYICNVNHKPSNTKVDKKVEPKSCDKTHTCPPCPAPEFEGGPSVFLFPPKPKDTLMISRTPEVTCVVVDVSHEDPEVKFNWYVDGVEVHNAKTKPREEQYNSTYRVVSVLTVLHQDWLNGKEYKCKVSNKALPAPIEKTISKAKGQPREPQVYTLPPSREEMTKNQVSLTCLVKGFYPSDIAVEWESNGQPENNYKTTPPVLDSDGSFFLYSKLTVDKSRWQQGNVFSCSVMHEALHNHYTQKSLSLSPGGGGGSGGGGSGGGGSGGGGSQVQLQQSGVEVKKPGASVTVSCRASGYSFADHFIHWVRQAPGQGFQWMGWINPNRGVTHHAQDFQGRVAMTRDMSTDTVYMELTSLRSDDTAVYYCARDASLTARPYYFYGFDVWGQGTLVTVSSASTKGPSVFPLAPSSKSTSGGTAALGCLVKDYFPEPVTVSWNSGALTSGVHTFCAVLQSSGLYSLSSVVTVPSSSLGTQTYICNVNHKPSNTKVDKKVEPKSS
light 1: DIVMTQSPLSLPVTPGEPASISCRSSQNIVNSQGNTYLEWYLQKPGQSPQLLIYKVTNRFSGVPDRFSGSGSGTDFTLKISRVEAEDVGVYYCFQASLVPWTFGGGTKVEIKRTVAAPSVFIFPPSDEQLKSGTASVVCLLNNFYPREAKVQWKVDNALQSGNSQESVTEQDSKDSTYSLSSTLTLSKADYEKHKVYACEVTHQGLSSPVTKSFNRGEC
light 2: DIQMTQSPSSVSASVGDRVTITCRASQGISSWLAWYQQKPGKAPKLLIYAASSLQSGVPSRFSGSGSGTDFTLTISSLQPEDFATYYCQQANSFPPAFGQGTKVEIKGQPKAAPSVTLFPPSSEELQANKATLVCLISDFYPGAVTVAWKADSSPVKAGVETTTPCKQSNNKYAASSYLSLTPEQWKSHRSYSCQVTHEGSTVEKTVAPTESS
notes: 2+2 symmetric bispecific: [CD40 VH-CH1]-Fc-linker-[FAP VH-CH1] heavy chain with two kinds of light chain; also called FAP×CD40 bispecific antibody
B3: ERP2006-BS0015 (bispecific antibody)
heavy: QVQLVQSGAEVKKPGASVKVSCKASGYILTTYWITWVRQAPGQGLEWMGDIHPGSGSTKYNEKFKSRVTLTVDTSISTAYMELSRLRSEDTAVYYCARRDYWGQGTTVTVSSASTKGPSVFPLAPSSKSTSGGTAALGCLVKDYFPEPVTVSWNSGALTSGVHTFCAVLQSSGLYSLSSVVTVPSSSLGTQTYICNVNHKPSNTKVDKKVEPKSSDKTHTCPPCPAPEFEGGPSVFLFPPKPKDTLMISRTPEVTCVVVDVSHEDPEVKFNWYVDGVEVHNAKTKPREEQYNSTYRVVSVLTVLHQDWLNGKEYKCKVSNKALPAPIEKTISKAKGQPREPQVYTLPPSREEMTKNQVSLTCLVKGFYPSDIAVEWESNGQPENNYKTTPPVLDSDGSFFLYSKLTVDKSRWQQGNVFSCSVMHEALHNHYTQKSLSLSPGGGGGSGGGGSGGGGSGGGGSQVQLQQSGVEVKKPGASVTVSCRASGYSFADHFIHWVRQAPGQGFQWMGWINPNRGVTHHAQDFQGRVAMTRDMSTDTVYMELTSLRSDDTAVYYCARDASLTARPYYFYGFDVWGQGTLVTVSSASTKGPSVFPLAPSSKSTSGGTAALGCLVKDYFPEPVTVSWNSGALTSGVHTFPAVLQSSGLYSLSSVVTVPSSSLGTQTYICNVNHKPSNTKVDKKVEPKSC
light 1: DIVMTQSPLSLPVTPGEPASISCRSSQNIVNSQGNTYLEWYLQKPGQSPQLLIYKVTNRFSGVPDRFSGSGSGTDFTLKISRVEAEDVGVYYCFQASLVPWTFGGGTKVEIKGQPKAAPSVTLFPPSSEELQANKATLVCLISDFYPGAVTVAWKADSSPVKAGVETTTPCKQSNNKYAASSYLSLTPEQWKSHRSYSCQVTHEGSTVEKTVAPTESS
light 2: DIQMTQSPSSVSASVGDRVTITCRASQGISSWLAWYQQKPGKAPKLLIYAASSLQSGVPSRFSGSGSGTDFTLTISSLQPEDFATYYCQQANSFPPAFGQGTKVEIKRTVAAPSVFIFPPSDEQLKSGTASVVCLLNNFYPREAKVQWKVDNALQSGNSQESVTEQDSKDSTYSLSSTLTLSKADYEKHKVYACEVTHQGLSSPVTKSFNRGEC
notes: as for B2
B4: TJ030-PR1102 (bispecific antibody, human IgG1, kappa, L234A L235A)
heavy 1: not shown
light 1: B2 light 1 with S7T, N28S, I29L, N31H, Q33T, T57S, A96G, L98H, W101Y
heavy 2: not shown
light 2: not shown
notes: 1+1 asymmetric knob-into-hole bispecific IgG1; knob on the PD-1 arm, hole on the CTLA-4 arm; tested after polishing purification; also called PD-1×CTLA-4 bispecific antibody (F126C-S121C placed into the CTLA-4 arm)
B5: TJ030-PR1104 (bispecific antibody, human IgG1, kappa, L234A L235A)
heavy 1: not shown
light 1: B2 light 1 with S7T, N28S, I29L, N31H, Q33T, T57S, A96G, L98H, W101Y
heavy 2: not shown
light 2: not shown
notes: 1+1 asymmetric knob-into-hole bispecific IgG1; knob on the PD-1 arm, hole on the CTLA-4 arm; tested after polishing purification; also called PD-1×CTLA-4 bispecific antibody (F170C-T164C placed into the CTLA-4 arm)
B6: TJ030-PR1108 (bispecific antibody, human IgG1, kappa, L234A L235A)
heavy 1: not shown
light 1: DIVMTQTPLSLPVTPGEPASISCRSSQSLVHSTGNTYLEWYLQKPGQSPQLLIYKVSNRFSGVPDRFSGSGSGTDFTLKISRVEAEDVGVYYCFQGSHVPYTFGGGTKVEIKRTVAAPSVFIFPPSDEQLKSGTASVVCLLNNFYPREAKVQWKVDNALQSGNSQESVCEQDSKDSTYSLSSTLTLSKADYEKHKVYACEVTHQGLSSPVTKSFNRGEA
heavy 2: not shown
light 2: not shown
notes: 1+1 asymmetric knob-into-hole bispecific IgG1; knob on the PD-1 arm, hole on the CTLA-4 arm; tested after polishing purification; also called PD-1×CTLA-4 bispecific antibody (F170C-T164C placed into the PD-1 arm)
B7: TJ030-PR1106 (bispecific antibody, human IgG1, kappa, L234A L235A)
heavy 1: not shown
light 1: B6 light 1 with S126C, C169T
heavy 2: not shown
light 2: not shown
notes: 1+1 asymmetric knob-into-hole bispecific IgG1; knob on the PD-1 arm, hole on the CTLA-4 arm; tested after polishing purification; also called PD-1×CTLA-4 bispecific antibody (F126C-S121C placed into the PD-1 arm)

target: T1, human FAP; assay: FACS binding to CHO/FAP cells
Protocol: (§1) CHO cells stably expressing human FAP (i.e., CHO/FAP cells) and HEK293 cells 48 hours after transient transfection (i.e., HEK293/CD40 cells) in the logarithmic growth phase were collected by centrifugation, washed with PBS and then centrifuged. The cells were plated at 2E5 cells/100 μL/well and centrifuged at 400 g for 5 min Different concentrations of test antibody were added. The cells were incubated on ice for 1 h, washed with PBS and centrifuged at 400 g for 5 min The goat anti-human secondary antibody Alexa Fluor 488 with a fluorophore was added, and the cells were stained in an ice bath for 1 h, washed twice with PBS and then assayed on a flow cytometer.
(§2) The bispecific antibodies ERP2006-BS0012 and ERP2006-BS0015 have similar affinity for FAP to the parent FAP monoclonal antibody AblO and similar affinity for CD40 to the parent CD40 monoclonal antibody 9E5-25.

binding result	EC50 [pM]	Binder
binds		B1
	349	B2
	336	B3

target: T2, human CD40 (human, UniProt P25942 21-277); assay: FACS binding to HEK293/CD40 cells
T2 construct: whole, on cells; also called HEK293/CD40; HEK-Blue CD40L cell
Protocol: as §1, §2

T2 sequence (P25942 21-277): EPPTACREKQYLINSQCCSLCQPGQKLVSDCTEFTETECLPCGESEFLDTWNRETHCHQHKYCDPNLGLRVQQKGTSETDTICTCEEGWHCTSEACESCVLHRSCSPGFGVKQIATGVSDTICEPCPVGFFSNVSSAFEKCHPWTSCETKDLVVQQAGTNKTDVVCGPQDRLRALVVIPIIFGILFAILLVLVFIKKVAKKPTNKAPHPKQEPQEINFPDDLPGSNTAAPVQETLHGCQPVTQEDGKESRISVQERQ

EC50 [pM]	Binder
471	B2
456	B3

target: T3, human PD-1 (human, UniProt Q15116 25-288); assay: flow cytometry cell cross-linking (CHO-K1/PD-1 + HEK293/CTLA-4 cells), antibody at 1 nM
T3 construct: whole, on cells; also called CHO-K1/PD-1
Protocol: (§3) The ability of PD-1×CTLA-4 bispecific antibodies to co-bind to cells highly expressing human PD-1 and human CTLA-4 after polishing purification was determined by flow cytometry. First, HEK293 cells were transiently transfected with human CTLA-4 plasmids, and 24 h after the transfection, the HEK293 cells highly expressing CTLA-4 were labeled with Cell Trace Far red (Invitrogen, C34564), and the CHO-K1/PD-1 stably transfected strain was labeled with Cell Trace Violet (Invitrogen, C34557). The cells were added to a 96-well U-bottom plate (Costar, 3599) at 2E5 cells/well, and the test antibody was diluted to 100 nM, 10 nM, 1 nM, 0.1 nM and 0.01 nM and added to the 96-well U-bottom plate at 50 μL/well, making a total volume of 150 μL/well. The plate was incubated at 4° C. in a dark place for 1 h. The double-positive cell percentage of HEK293/CTLA-4 of CTLA-4 and CHO-K1/PD-1 was determined by flow cytometry.
(§4) According to Example 1.4, the ability of each of the PD-1×CTLA-4 bispecific antibodies TJ030-PR1102 (F126C-S121C was placed into the CTLA-4 arm), TJ030-PR1104 (F170C-T164C was placed into the CTLA-4 arm), TJ030-PR1106 (F126C-S121C was placed into the PD-1 arm) and TJ030-PR1108 (F170C-T164C was placed into the PD-1 arm) to co-bind to cells highly expressing human PD-1 and human CTLA-4 after polishing purification was determined by flow cytometry, with CTLA-4 monoclonal antibody and IgG as negative controls. […] Such cross-linking of cells occurred in bispecific antibody molecule incubation only rather than monoclonal antibody or IgG1 incubation.

T3 sequence (Q15116 25-288): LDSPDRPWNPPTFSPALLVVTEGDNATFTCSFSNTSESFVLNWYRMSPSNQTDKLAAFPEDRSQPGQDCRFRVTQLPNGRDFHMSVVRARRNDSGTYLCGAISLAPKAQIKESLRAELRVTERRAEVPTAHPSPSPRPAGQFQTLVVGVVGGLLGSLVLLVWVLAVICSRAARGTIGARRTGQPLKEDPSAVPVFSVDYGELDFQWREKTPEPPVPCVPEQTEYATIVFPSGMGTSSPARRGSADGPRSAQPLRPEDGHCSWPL

proportion of double-positive cells [%]	Binder
25.1	B4
30.5	B5
33.2	B6
34.7	B7

target: T3, human PD-1; assay: flow cytometry cell cross-linking (CHO-K1/PD-1 + HEK293/CTLA-4 cells), antibody at 3 nM
Protocol: as §3, §4

proportion of double-positive cells [%]	Binder
32.2	B4
35.8	B5
35.3	B6
37.4	B7

target: T3, human PD-1; assay: flow cytometry cell cross-linking (CHO-K1/PD-1 + HEK293/CTLA-4 cells), antibody at 10 nM
Protocol: as §3, §4

proportion of double-positive cells [%]	Binder
32.4	B4
34.8	B5
37.7	B6
38.1	B7

target: T3, human PD-1; assay: flow cytometry cell cross-linking (CHO-K1/PD-1 + HEK293/CTLA-4 cells), antibody at 30 nM
Protocol: as §3, §4

proportion of double-positive cells [%]	Binder
26.7	B4
32.1	B5
31.4	B6
33.1	B7

target: T3, human PD-1; assay: flow cytometry cell cross-linking (CHO-K1/PD-1 + HEK293/CTLA-4 cells), antibody at 0.1 nM
Protocol: as §3, §4

proportion of double-positive cells [%]	Binder
11.8	B4
18.2	B5
17	B6
19.1	B7

target: T3, human PD-1; assay: flow cytometry cell cross-linking (CHO-K1/PD-1 + HEK293/CTLA-4 cells), antibody at 0.3 nM
Protocol: as §3, with “The cells were added to a 96-well U-bottom plate (Costar, 3599) at 2E5 cells/well, and the test antibody was diluted to 100 nM, 10 nM, 1 nM, 0.1 nM and 0.01 nM and added to the 96-well U-bottom plate at 50 μL/well, making a total volume of 150 μL/well.” left out
as §4

proportion of double-positive cells [%]	Binder
20.7	B4
25.3	B5
24.2	B6
26.3	B7

target: T3, human PD-1; assay: flow cytometry cell cross-linking (CHO-K1/PD-1 + HEK293/CTLA-4 cells), antibody at 100 nM
Protocol: as §3, §4

proportion of double-positive cells [%]	Binder
22.2	B4
25.4	B5
27.2	B6
23.9	B7

target: T3, human PD-1; assay: flow cytometry cell cross-linking (CHO-K1/PD-1 + HEK293/CTLA-4 cells), antibody at 0.03 nM
Protocol: as §3, with “The cells were added to a 96-well U-bottom plate (Costar, 3599) at 2E5 cells/well, and the test antibody was diluted to 100 nM, 10 nM, 1 nM, 0.1 nM and 0.01 nM and added to the 96-well U-bottom plate at 50 μL/well, making a total volume of 150 μL/well.” left out
as §4

proportion of double-positive cells [%]	Binder
8.87	B4
10.4	B5
11.8	B6
10.9	B7
